# Measurements published in paper PMC8124189, “Detection of the First Epoxyalcohol Synthase/Allene Oxide Synthase (CYP74 Clan) in the Lancelet (Branchiostoma belcheri, Chordata)” (International Journal of Molecular Sciences, 2021).
# B1: CYP440A18 (BbEAS/AOS) (Branchiostoma belcheri) (protein)
# chain: MGNAIGYLKWLGQGKQAFAPDRKEDFVETNIGFPCRVVTGNKAVQSVFDIDLFKKEEFFFGLIEIRKEFTEGVCPSVTSNGKIHEKNKALMMDVIAGAYEEIPTSTADAVLSNIATWGSTPTDFESKLMAVSAGIFLPTIFGRSTRFNPEDVNLYVKGATELRSDILAAVTREDLTETRRGMRSVLEKIKTSERYSQLIDLGRSHGLDEASTTGQLLFCVMFNAVGGTATNLVATFGRLDTISAEDRQELREEALAALRKHGGLTRAALEEMPKIESFVLEVLRTCPSPGVWSHIAARPTTVKYTTASGPKEVNIKEGERVYASPYWALRDPAVFDKPDDFVWRRFLGPEGEALREHHVTFHGRLTDSAAVNNHMCPGRDVALSVIKGSIAILNTFFGWELQERPFWTGTKVSRIGQPDNVVKVKSFWLQHPDDLKEIFPSHFEEIHDSLNSAVLQCP
# notes: full-length, 458 aa; codon-adapted synthetic gene in pET-23a; C-terminal His tag; E. coli BL21(DE3)pLysS; IMAC purified
# Key:
# Assay in all cases: purified protein
# Format in all cases: biochemical, Branchiostoma belcheri
# Conditions in all cases: Na phosphate buffer (pH range 6.0-8.0 stated; optimum pH 7.0), 25 °C, substrate 5-150 μM
# [1] = substrate: CC/C=C\C/C=C\C=C\[C@H](CCCCCCCC(=O)O)OO
# [2] = substrate: CCCCC/C=C\C=C\[C@H](CCCCCCCC(=O)O)OO
# [3] = substrate: CC/C=C\C[C@@H](/C=C/C=C\CCCCCCCC(=O)O)OO
# [4] = substrate: CCCCC[C@@H](/C=C/C=C\CCCCCCCC(=O)O)OO
protein,measurement,setting,value
B1,Km,[1],31.8 µM
same,kcat,[1],248 s⁻¹
same,kcat/Km,[1],7.8e+06 M⁻¹ s⁻¹
same,Km,[2],37.0 µM
same,kcat,[2],164 s⁻¹
same,kcat/Km,[2],4.4e+06 M⁻¹ s⁻¹
same,Km,[3],17.6 µM
same,kcat,[3],432 s⁻¹
same,kcat/Km,[3],2.45e+07 M⁻¹ s⁻¹
same,Km,[4],18.6 µM
same,kcat,[4],174 s⁻¹
same,kcat/Km,[4],9.4e+06 M⁻¹ s⁻¹
